Data published in US7029861B1, “LPS-response gene compositions and methods” (Board of Regents, The University of Texas System, priority 1998, dated 2006).

Tests used:
[1] = biological target: flag-tagged Tlr4^Lps-d cytoplasmic domain construct, residues 630-835 (P712H) (mouse) (UniProt Q9QUK6); assay: equilibrium specific binding of M2 at a fixed concentration to RAW 264.7 clones, mean of 8 clones
[2] = biological target: flag-tagged Tlr4^Lps-n cytoplasmic domain construct, residues 630-835 (mouse) (UniProt Q9QUK6); assay: equilibrium specific binding of M2 at a fixed concentration to RAW 264.7 clones, mean of 7 clones
[3] = biological target: flag-tagged Tlr4^Lps-d, residues 22-835 (P712H), expressed in RAW 264.7 cells (mouse) (UniProt Q9QUK6); assay: equilibrium specific binding of M2 at a fixed concentration to RAW 264.7 clones, mean of 10 clones
[4] = biological target: flag-tagged Tlr4^Lps-n, residues 22-835, expressed in RAW 264.7 cells (mouse) (UniProt Q9QUK6); assay: as above
[5] = biological target: flag-tagged Tlr4^Lps-d, residues 22-835 (P712H), expressed in RAW 264.7 cells (mouse) (UniProt Q9QUK6); assay: saturation isotherm of 125I-M2 on transfected RAW 264.7 cells, nonlinear regression
[6] = biological target: flag-tagged Tlr4^Lps-d, residues 22-835 (P712H), expressed in RAW 264.7 cells (mouse) (UniProt Q9QUK6); assay: saturation isotherm of 125I-M2 (50 ng/ml to 20 ug/ml) on transfected RAW 264.7 cells
[7] = biological target: flag-tagged Tlr4 ectodomain construct, residues 22-660 (no cytoplasmic domain) (mouse) (UniProt Q9QUK6); assay: equilibrium specific binding of M2 at a fixed concentration to RAW 264.7 clones, mean of 9 clones

Copies/cell [1]: 9900 copies/cell
Copies/cell [2]: 12000 copies/cell
Copies/cell [3]: 20000 copies/cell
Copies/cell [4]: 21000 copies/cell
binding sites per cell (binding sites per cell) [5]: 28100
% saturation of the surface receptor at the highest antibody concentration [6]: 56.4%
Copies/cell [7]: 14000 copies/cell
Substance: monoclonal antibody M2 (obtained from Sigma)
